This note sets out measurements from article PMC8443706, “Functionally diverse heteromeric traps for ligands of the transforming growth factor-β superfamily” (Scientific Reports, 2021).

In assay [1] the target is T1, BMP7 (human, UniProt P18075 293-431).
T1 construct: source: bought: R&D Systems
T1 sequence (looked up): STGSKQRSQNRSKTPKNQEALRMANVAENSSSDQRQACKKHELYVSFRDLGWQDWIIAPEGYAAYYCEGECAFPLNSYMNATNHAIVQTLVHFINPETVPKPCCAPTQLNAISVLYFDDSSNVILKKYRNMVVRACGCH
The assay is described as follows: SPR; same experiment as a1 (Biacore 8K, 37 °C, receptor dimers captured by anti-human Fc, HBS-EP+ with 350 mM NaCl added and 0.5 mg/mL BSA) but fitted with a bivalent analyte model (bold cells of Table 1); the first binding step is the one considered. To be noted: both partners purified.

In assay [2] the target is T2, activin A (human, UniProt P08476 311-426).
T2 sequence (looked up): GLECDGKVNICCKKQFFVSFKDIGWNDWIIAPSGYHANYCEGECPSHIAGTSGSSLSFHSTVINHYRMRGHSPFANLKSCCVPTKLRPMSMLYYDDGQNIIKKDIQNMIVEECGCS
Briefly: cell-based or functional assay.

In assay [3] the target is T3, activin B (human, UniProt P09529 293-407).
T3 sequence (looked up): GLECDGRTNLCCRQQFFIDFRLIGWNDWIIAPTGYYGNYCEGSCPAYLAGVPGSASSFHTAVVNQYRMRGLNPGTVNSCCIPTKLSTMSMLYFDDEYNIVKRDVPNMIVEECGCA
Briefly: cell-based or functional assay.

Assay [4] has as its target T4, GDF11 (human, UniProt O95390 299-407).
T4 sequence (looked up): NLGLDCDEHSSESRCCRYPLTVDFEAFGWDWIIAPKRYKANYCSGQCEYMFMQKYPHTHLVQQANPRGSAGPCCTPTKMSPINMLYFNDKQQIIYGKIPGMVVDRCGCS
The assay is described as follows: cell-based or functional assay.

Assay [5] concerns the target T5, BMP9 (human, UniProt Q9UK05 320-429).
T5 sequence (looked up): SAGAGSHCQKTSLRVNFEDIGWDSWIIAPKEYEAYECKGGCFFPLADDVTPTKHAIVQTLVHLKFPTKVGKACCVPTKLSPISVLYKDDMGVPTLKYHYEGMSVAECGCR
The assay is described as follows: cell-based or functional assay.

In assay [6] the target is T6, BMP10 (human, UniProt O95393 317-424).
T6 sequence (looked up): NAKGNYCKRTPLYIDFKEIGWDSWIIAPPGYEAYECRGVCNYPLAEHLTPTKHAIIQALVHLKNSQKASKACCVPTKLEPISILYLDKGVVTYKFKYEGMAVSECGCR
Briefly: cell-based or functional assay.

Assay [7] concerns the target T7, growth differentiation factor 8 (GDF8, or myostatin) (human, UniProt O14793 267-375).
T7 sequence (looked up): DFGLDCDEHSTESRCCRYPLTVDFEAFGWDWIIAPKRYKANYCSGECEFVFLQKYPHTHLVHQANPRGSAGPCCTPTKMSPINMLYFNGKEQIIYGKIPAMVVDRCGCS
Briefly: cell-based or functional assay.

Assay [8] concerns the target T8, BMP6 (human, UniProt P22004 375-513).
T8 construct: source: bought: R&D Systems
T8 sequence (looked up): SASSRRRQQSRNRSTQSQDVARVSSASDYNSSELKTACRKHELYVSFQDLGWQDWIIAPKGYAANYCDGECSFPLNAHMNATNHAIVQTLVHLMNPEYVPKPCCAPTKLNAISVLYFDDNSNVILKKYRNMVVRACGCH
Briefly: SPR; Biacore 8K, 37 °C; Fc-fusion receptor dimers captured by anti-human Fc antibody on a CM5 chip (100-150 RU); ligands injected in two-fold dilution series (300 s association, 600 s dissociation); HBS-EP+ supplemented with 350 mM NaCl and 0.5 mg/mL BSA; 1:1 Langmuir model with a term for mass transport. The note with it: both partners purified.

Assay [9] deals with T2, activin A. The assay is described as above. The note with it: both partners purified.
For assay [10], the target named is T4, GDF11. The description is as above. To be noted: both partners purified.

B1: IIB-Fc:IIB-Fc homodimer (human ActRIIB ECD fused to human IgG1 Fc) (Fc fusion, UniProt Q13705-1 19-134, looked up)
chain: SGRGEAETRECIYYNANWELERTNQSGLERCEGEQDKRLHCYASWRNSSGTIELVKKGCWLDDFNCYDRQECVATEENPQVYFCCCEGNFCNERFTHLPEAGGPEVTYEPPPTAPT
notes: activin receptor type IIB (ActRIIB) extracellular domain, human, aa 19-134 of NP_001097.2; Chains linked by disulfide bonds between the Fc domains; a form with murine IgG2a Fc was used only in mice; also called ActRIIB-Fc homodimer; ActRIIB-Fc; not shown: Fc (human IgG1), C-terminal, kept
Regarding B1, the Kd was > 10 nM in assay [1] and 0.348 nM in [8]. Moreover, the koff – broadly, the rate constant with which the complex falls apart – in assay [1] was > 0.01 s⁻¹; in assay [8] it was 0.00273 s⁻¹. Further, the kon (commonly the second-order rate constant of association) in assay [1] came out at 800000 M⁻¹ s⁻¹; in assay [8] it was 7.8e+06 M⁻¹ s⁻¹. Also, the “IC50 of the trap for inhibition of ligand-induced SMAD2/3 (CAGA12) luciferase reporter signalling in A204 cells (ligand with the cells' receptors)” value in assay [2] was 0.11 nM; in assay [3], 0.06 nM; in assay [4], 0.09 nM; in [7], 0.76 nM. Besides, the “IC50 of the trap for inhibition of ligand-induced SMAD1/5/8 (BRE) luciferase reporter signalling in T98G cells (ligand with the cells' receptors)” value in assay [5] turned out to be 0.57 nM; in [6], 0.03 nM.

B2: ALK4-Fc:ALK4-Fc homodimer (R&D Systems Cat #808-AR-100) (Fc fusion, human, UniProt P36896-1 24-126, looked up)
chain: SGPRGVQALLCACTSCLQANYTCETDGACMVSIFNLDGMEHHVRTCIPKVELVPAGKPFYCLSSEDLRNTHCCYTDYCNRIDLRVPSGHLKEPEHPSMWGPVE
notes: activin receptor-like kinase 4 (ALK4) extracellular domain, human; Bought product; source: bought: R&D Systems (Cat #808-AR-100); not shown: Fc (human)
As to B2, in assay [2], the “IC50 of the trap for inhibition of ligand-induced SMAD2/3 (CAGA12) luciferase reporter signalling in A204 cells (ligand with the cells' receptors)” value was > 100 nM. Moreover, in assay [9], the Kd was > 10 nM, the koff is > 0.01 s⁻¹ and the kon was found to be 200000 M⁻¹ s⁻¹. Besides, in assay [10], the Kd was > 10 nM, the koff was > 0.01 s⁻¹ and the kon worked out at 500000 M⁻¹ s⁻¹.
